# Data from IntAct's records for PubMed 19478074.
# B1: Transforming growth factor-beta-induced protein ig-h3 (Homo sapiens), Q15582 (parent)
# chain: MALFVRLLALALALALGPAATLAGPAKSPYQLVLQHSRLRGRQHGPNVCAVQKVIGTNRKYFTNCKQWYQRKICGKSTVISYECCPGYEKVPGEKGCPAALPLSNLYETLGVVGSTTTQLYTDRTEKLRPEMEGPGSFTIFAPSNEAWASLPAEVLDSLVSNVNIELLNALRYHMVGRRVLTDELKHGMTLTSMYQNSNIQIHHYPNGIVTVNCARLLKADHHATNGVVHLIDKVISTITNNIQQIIEIEDTFETLRAAVAASGLNTMLEGNGQYTLLAPTNEAFEKIPSETLNRILGDPEALRDLLNNHILKSAMCAEAIVAGLSVETLEGTTLEVGCSGDMLTINGKAIISNKDILATNGVIHYIDELLIPDSAKTLFELAAESDVSTAIDLFRQAGLGNHLSGSERLTLLAPLNSVFKDGTPPIDAHTRNLLRNHIIKDQLASKYLYHGQTLETLGGKKLRVFVYRNSLCIENSCIAAHDKRGRYGTLFTMDRVLTPPMGTVMDVLKGDNRFSMLVAAIQSAGLTETLNREGVYTVFAPTNEAFRALPPRERSRLLGDAKELANILKYHIGDEILVSGGIGALVRLKSLQGDKLEVSLKNNVVSVNKEPVAEPDIMATNGVVHVITNVLQPPANRPQERGDELADSALEIFKQASAFSRASQRSVRLAPVYQKLLERMKH
# partner: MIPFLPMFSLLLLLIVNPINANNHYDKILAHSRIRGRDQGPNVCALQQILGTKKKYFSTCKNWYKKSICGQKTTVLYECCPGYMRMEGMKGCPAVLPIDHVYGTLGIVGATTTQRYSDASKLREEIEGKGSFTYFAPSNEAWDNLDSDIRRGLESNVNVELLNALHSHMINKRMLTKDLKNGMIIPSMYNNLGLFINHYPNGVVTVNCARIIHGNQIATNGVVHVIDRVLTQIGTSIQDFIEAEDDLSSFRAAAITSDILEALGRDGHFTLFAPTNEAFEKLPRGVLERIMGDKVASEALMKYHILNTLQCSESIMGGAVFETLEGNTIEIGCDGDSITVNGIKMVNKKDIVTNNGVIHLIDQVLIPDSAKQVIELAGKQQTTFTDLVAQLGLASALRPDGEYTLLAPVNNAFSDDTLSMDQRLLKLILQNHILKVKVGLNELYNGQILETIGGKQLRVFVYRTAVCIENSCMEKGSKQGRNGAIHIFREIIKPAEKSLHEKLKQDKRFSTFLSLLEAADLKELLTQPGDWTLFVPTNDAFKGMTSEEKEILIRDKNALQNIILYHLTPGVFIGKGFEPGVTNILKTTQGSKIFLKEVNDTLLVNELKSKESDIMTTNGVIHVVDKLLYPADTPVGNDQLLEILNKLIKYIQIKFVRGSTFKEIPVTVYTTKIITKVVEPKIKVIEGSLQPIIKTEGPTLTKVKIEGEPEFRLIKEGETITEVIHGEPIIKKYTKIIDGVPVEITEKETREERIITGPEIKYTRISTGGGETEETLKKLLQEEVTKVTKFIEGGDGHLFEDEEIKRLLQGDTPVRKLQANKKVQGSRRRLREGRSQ
# Variants of: B1
# Settings: with postn_human POSTN
row,Variant,effect of a mutation on the interaction
1,R124H,disrupting interaction strength
